{"source": "patent US10660972B2", "about": "“Methods for coupling targeting peptides onto recombinant lysosomal enzymes for improved treatments of lysosomal storage diseases” (AMICUS THERAPEUTICS, INC., priority 2011, dated 2020)", "key": {"[1]": {"target": "IGF-2/CI-MPR (Homo sapiens, UniProt P11717)", "sequence (P11717 41-2491)": "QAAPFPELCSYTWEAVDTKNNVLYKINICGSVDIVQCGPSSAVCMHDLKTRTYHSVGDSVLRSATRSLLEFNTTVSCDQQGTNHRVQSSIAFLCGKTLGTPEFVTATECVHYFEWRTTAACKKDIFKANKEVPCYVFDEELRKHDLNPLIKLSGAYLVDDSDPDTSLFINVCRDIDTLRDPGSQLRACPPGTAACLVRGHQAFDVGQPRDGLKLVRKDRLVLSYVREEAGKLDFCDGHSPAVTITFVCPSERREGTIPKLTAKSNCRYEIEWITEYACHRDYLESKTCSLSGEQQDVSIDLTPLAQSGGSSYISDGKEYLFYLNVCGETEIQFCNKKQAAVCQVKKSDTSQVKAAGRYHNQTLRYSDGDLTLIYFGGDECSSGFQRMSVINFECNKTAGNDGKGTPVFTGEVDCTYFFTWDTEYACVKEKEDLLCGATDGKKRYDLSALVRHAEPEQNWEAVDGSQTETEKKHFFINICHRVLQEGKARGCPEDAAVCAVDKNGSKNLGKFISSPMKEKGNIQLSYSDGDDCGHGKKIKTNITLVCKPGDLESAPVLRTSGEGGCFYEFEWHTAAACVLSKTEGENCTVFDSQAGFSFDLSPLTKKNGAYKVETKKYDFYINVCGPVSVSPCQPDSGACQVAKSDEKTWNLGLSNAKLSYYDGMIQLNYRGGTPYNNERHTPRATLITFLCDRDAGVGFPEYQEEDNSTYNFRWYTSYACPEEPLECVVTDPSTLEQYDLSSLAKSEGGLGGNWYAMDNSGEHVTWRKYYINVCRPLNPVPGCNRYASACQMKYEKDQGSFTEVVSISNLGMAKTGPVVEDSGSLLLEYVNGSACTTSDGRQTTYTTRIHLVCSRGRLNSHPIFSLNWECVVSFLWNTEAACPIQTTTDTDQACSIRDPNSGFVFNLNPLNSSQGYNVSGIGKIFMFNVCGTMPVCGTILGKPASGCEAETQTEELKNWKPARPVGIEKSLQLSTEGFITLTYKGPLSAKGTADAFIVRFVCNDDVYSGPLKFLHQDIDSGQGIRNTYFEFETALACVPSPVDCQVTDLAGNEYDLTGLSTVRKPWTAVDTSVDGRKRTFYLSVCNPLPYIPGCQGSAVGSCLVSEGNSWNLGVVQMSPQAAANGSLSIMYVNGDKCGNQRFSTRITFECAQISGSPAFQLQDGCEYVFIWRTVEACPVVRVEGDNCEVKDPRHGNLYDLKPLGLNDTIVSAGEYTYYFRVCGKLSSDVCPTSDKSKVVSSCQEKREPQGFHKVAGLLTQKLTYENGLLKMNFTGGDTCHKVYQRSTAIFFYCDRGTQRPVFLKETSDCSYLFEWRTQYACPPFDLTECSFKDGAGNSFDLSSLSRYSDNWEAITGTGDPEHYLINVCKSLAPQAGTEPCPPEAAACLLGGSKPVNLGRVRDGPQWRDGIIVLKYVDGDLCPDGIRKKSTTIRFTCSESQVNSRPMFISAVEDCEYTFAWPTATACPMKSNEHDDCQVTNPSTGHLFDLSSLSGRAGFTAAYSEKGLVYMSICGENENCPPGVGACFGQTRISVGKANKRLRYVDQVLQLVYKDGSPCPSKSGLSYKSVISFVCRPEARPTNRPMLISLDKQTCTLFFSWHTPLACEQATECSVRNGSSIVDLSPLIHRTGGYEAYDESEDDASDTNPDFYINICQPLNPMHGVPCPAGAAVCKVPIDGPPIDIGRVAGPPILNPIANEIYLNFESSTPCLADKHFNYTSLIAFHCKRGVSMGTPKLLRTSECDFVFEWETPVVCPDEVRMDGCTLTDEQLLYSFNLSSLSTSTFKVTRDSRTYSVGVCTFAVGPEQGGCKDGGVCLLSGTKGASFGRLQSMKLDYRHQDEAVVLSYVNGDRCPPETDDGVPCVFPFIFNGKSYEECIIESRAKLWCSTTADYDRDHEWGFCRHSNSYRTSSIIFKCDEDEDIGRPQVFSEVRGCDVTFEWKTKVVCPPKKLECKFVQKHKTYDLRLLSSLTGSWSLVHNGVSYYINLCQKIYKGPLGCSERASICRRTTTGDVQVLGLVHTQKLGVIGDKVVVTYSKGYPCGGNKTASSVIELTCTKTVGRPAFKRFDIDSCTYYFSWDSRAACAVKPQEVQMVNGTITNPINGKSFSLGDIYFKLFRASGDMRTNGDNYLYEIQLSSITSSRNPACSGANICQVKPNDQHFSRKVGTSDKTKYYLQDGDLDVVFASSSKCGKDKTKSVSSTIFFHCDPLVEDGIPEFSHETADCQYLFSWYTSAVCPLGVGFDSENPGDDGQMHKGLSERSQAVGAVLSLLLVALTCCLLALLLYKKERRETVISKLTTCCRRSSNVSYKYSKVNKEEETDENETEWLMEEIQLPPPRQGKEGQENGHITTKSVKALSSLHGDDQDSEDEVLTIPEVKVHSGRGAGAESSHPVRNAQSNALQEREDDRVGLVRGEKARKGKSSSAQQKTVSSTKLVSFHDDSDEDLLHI", "details": "cited from earlier work; for Kd: ligand affinity for IGF-2/CI-MPR, read-out: Binding Affinity (Apparent Kd; nM)"}, "[2]": {"test_system": "Pompe disease", "details": "40 mg/kg every other week; cited from earlier work"}, "[3]": {"target": "insulin receptor (Homo sapiens, UniProt P06213)", "details": "compared to the IGF-2/CI-MPR; cited from earlier work"}, "[4]": {"details": "human, in vivo; cited from earlier work"}, "[5]": {"target": "IGF-1 receptor (Homo sapiens, UniProt P08069)", "details": "compared to the IGF-2/CI-MPR; cited from earlier work"}, "[6]": {"test_system": "serum IGF binding proteins (IGFBPs)", "assay": "Binding to serum IGF binding proteins, inferred from uptake in serum-containing medium", "assay_type": "cell-based", "details": "inferred from internalization in medium with 10% FBS", "procedure": "To assess the functional effects of IGF2 peptide for the cellular uptake of exogenous lysosomal enzymes, the internalization of IGF2-conjugated rbGAA (vIGF2-rhGAA) was evaluated in L6 rat skeletal muscle myoblasts. Briefly, L6 myoblasts were expanded in T-75 flasks to confluence in DMEM medium containing 10% fetal bovine serum (FBS) at 37 C and a 5% CO2 environment. The cells were harvested via trypsin/EDTA and plated in 6-well tissue culture plates at a cell density of 3×10^5 cells per well and incubated in DMEM/10% […] medium. Two hours prior to the addition of lysosomal enzymes, the spent DMEM 10% FBS medium was replaced with 2.5 ml uptake medium (Ham's F-12/10% FBS/2 mM PIPES, pH 6.7). Unconjugated rhGAA and vIGF2-rhGAA were diluted to 0.5 mg/ml with 50 mM sodium phosphate, pH 6.5/100 mM NaCl/0.05%>Polysorbate-80 and sterilized through a 0.2 μm filter spin device (Costar). Unconjugated rhGAA was added to individual wells at final protein concentrations of 10-200 nM while vIGF2-rhGAA was added at 2-25 nM. To ensure that all wells had the same volume and correct protein concentration, 50 mM sodium phosphate, pH 6.5/100 mM NaCl/0.05% Polysorbate-80 buffer was added so that the total volume of enzyme and buffer was 0.2 ml for each sample."}, "[7]": {"assay": "Solubility and stability of protein preparations in acidic buffer", "assay_type": "physicochemical", "text": "(§1) The high-mannose type N-glycans on rhGAA is problematic because it is believed that these carbohydrates cause the protein to be rapidly cleared from the circulation via macrophage and splenic mannose receptors. […] Deglycosylation of rhGAA can be performed after the enzyme is modified with S-Hynic and purified (via size exclusion chromatography or dialysis to remove excess crosslinker). This strategy allows for complete deglycosylation of rhGAA over 1-5 days using EndoF or EndoH without affecting enzyme activity. The deglycosylated hydrazide-modified rhGAA is then conjugated to PEG4-benzaldehyde-modified IGF-2 peptides. Alternatively, rhGAA deglycosylation can be performed concurrently during the conjugation of PEG4-benzaldehyde-modified IGF-2 peptide to hydrazide-modified rhGAA using high concentrations of EndoF or EndoH. Deglycosylated, IGF2 peptide-conjugated rhGAA is then purified by gel filtration chromatography or dialysis to remove excess […] IGF-2 peptides and stored in acidic pH buffer (50 mM sodium phosphate, pH 6.2/100 mM NaCl/0.05% Polysorbate-80). The ideal method to remove high-mannose N-glycans from yeast-derived rhGAA would be to co-express EndoH with the lysosomal enzyme for deglycoylation in vivo prior to protein purification of rhGAA. […]"}, "[8]": {"test_system": "lysosomal enzyme activity (rhGAA, I2S)", "assay": "Enzyme activity of lysosomal enzyme after conjugation or deglycosylation", "assay_type": "biochemical, human", "text": "as §1, with “Polysorbate-80).” for “Polysorbate-80). The ideal method to remove high-mannose N-glycans from yeast-derived rhGAA would be to co-express EndoH with the lysosomal enzyme for deglycoylation in vivo prior to protein purification of rhGAA.”\nTo assess the functional effects of IGF2 peptide for the cellular uptake of exogenous lysosomal enzymes, the internalization of IGF2-conjugated rbGAA (vIGF2-rhGAA) was evaluated in L6 rat skeletal muscle myoblasts. […]"}}, "note": "“And” between values parts separate entries of the source, which are not always exact repeats. Identical values can stand only once.", "data": [{"molecule": "O=C[C@@H](O)[C@@H](O)[C@H](O)[C@H](O)COP(=O)(O)O", "note": "[free M6P, mannose 6-phosphate]", "values": [{"measurement": "Kd", "setting": "[1]", "value": 7000, "unit": "nM"}]}, {"molecule": "Myozyme: recombinant human acid α-glucosidase, rhGAA; Genzyme Corp.", "values": [{"measurement": "clinical effectiveness in Pompe disease", "setting": "[2]", "value": "only moderately effective"}]}, {"molecule": "WT hIGF-2: wildtype human insulin-like growth factor 2 peptide", "values": [{"measurement": "Kd", "setting": "[1]", "value": "0.03 to 0.2", "unit": "nM"}, {"measurement": "fold higher affinity for IGF-2/CI-MPR than mono-M6P N-glycan", "setting": "[1]; relative to mono-M6P N-glycan", "value": "approximately 230,000 fold"}, {"measurement": "fold lower affinity for insulin receptor compared to IGF-2/CI-MPR", "setting": "[3]", "value": "~100", "unit": "fold"}, {"measurement": "safety in clinical trials", "setting": "[4]", "value": "shown to be safe"}, {"measurement": "fold lower affinity for IGF-1 receptor compared to IGF-2/CI-MPR", "setting": "[5]", "value": "~230", "unit": "fold"}]}, {"molecule": "[Leu27] hIGF-2: human IGF-2 with substitution of leucine for tyrosine at position 27", "values": [{"measurement": "Kd", "setting": "[1]", "value": "0.05 nM and 0.06 nM"}]}, {"molecule": "[del(1-4), Arg6, Leu27, Arg65] IGF-2 [variant IGF2 peptide]", "values": [{"measurement": "binding affinity to serum IGF binding proteins (IGFBPs)", "setting": "[6]", "value": "low binding affinity"}, {"measurement": "stability of conjugated peptide in acidic buffers", "setting": "[7]; acidic buffers required for maintaining lysosomal enzyme activities", "value": "stable and maintains proper protein structure"}]}, {"molecule": "rhGAA: Recombinant human acid α-glucosidase", "values": [{"measurement": "effect of chemical conjugation of variant IGF2 peptide on enzyme activity", "setting": "[8]; after conjugation of variant IGF2 peptide (data not shown)", "value": "did not affect enzyme activity"}, {"measurement": "enzyme activity after removal of N-glycans", "setting": "[8]; deglycosylated with EndoF or EndoH, native conditions (data not shown)", "value": "completely active"}, {"measurement": "solubility after removal of N-glycans", "setting": "[7]; deglycosylated with EndoF or EndoH (data not shown)", "value": "remain soluble"}]}]}
